The source of these data is patent US20190085054A1.

What all share (assay): cell-based or functional assay
Assay [1] addresses active MMP13 (UniProt P45452).
Assay [2] addresses catalytic domain of human MMP9 (human) (UniProt P14780).
The target in assay [3] is human MMP2 (pro-MMP2 activated with APMA) (human) (UniProt P08253).
human MMP2 (pro-MMP2 activated with APMA) (human), sequence (P08253 30-660): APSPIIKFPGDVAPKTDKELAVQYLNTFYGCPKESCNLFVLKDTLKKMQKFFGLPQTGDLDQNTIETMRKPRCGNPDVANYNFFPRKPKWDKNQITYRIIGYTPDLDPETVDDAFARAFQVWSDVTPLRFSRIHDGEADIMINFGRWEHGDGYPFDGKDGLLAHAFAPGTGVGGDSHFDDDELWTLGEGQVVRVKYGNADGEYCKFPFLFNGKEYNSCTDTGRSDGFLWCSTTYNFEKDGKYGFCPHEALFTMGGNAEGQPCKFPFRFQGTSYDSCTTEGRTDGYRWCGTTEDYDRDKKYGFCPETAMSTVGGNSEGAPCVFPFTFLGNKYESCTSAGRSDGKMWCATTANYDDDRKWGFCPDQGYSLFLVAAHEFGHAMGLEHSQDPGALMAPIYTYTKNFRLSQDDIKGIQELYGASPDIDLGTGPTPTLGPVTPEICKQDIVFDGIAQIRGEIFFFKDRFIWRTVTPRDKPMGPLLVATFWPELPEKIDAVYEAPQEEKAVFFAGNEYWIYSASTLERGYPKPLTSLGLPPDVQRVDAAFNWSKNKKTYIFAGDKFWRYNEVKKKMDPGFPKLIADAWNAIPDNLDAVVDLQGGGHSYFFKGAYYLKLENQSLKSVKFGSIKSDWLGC

catalytic domain of human MMP9 (human), sequence (P14780 107-444 limits assumed): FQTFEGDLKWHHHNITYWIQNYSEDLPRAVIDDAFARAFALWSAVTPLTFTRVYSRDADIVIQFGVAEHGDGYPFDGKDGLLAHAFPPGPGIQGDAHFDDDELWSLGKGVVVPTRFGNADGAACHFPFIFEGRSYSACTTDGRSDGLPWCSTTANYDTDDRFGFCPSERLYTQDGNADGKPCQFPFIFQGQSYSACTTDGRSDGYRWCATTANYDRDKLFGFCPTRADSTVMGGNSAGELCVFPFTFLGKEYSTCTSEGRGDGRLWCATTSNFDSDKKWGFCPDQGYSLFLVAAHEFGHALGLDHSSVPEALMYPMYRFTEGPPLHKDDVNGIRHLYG

Turning to TIMP-3 mutein T63N, K65T, in assay [1], the MMP13 IC50 stood at 2.2 nM. Besides, the MMP9 IC50 in assay [2] was found to be 0.5 nM. In assay [3], this substance returned an MMP2 IC50 of 800 pM.

With TIMP-3 mutein P56N, G58T, the MMP13 IC50 in assay [1] worked out at 3.1 nM. The same substance registered an MMP9 IC50 in assay [2] of 2.3 nM. Moreover, the MMP2 IC50 in assay [3] was 1000 pM.

In assay [2], TIMP-3 mutein K45S, F57N showed an MMP9 IC50 of 4 nM. Further, the MMP2 IC50 in assay [3] stood at 300 pM.

Regarding TIMP-3 mutein F57N, the MMP13 IC50 in assay [1] was found to be 0.5 nM. Moreover, the MMP9 IC50 in assay [2] was found to be 4.6 nM. This substance displayed an MMP2 IC50 in assay [3] of 500 pM.
